Experiment in all cases: cell-based or functional assay
Experiment [1] addresses T1, CD19 on CD19 +ve cell lines (Daudi, Ramos, WSU-DLCL2) (human, UniProt P15391 20-556).
T1 sequence (looked up): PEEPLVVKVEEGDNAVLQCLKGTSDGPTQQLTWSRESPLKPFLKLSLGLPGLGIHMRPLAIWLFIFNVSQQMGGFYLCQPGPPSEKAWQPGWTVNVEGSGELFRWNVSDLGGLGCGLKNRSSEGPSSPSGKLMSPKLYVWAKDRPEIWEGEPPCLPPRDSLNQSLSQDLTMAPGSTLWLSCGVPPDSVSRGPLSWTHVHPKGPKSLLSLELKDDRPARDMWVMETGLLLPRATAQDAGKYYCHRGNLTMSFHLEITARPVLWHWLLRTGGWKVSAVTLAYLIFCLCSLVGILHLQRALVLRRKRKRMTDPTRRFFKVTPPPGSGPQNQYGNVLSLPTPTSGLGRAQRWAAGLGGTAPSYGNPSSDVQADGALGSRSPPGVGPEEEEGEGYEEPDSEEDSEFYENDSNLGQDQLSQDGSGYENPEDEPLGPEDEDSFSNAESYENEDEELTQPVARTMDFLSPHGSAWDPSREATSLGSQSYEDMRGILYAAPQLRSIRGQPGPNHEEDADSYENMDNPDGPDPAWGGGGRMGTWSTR

Experiment [2] concerns the target T1, CD19 on CD19 +ve cell lines (Daudi, …). The source holds these as a separate data set.
For experiment [3] the target is unchanged. The source holds these as a separate data set.

Read-outs that look alike come from different tables or passages of the source.

B1: RB4v1.2-A (anti-CD19 antibody RB4v1.2 conjugated to PBD drug linker A) (antibody, DAR 2.2, V domains shown)
VH: QVQLVQPGAEVVKPGASVKLSCKTSGYTFTSNWMHWVKQAPGQGLEWIGEIDPSDSYTNYNQNFQGKAKLTVDKSTSTAYMEVSSLRSDDTAVYYCARGSNPYYYAMDYWGQGTSVTVS
VL: EIVLTQSPAIMSASPGERVTMTCSASSGVNYMHWYQQKPGTSPRRWIYDTSKLASGVPARFSGSGSGTSYSLTISSMEPEDAATYYCHQRGSYTFGGGTKLEIK
modifications: PBD dimer drug linker A attached to cysteine thiols after TCEP reduction; positions not given; DAR 2.2 for the whole ADC
As for B1, in experiment [1], the “EC50 (µg/mL), in vitro cytotoxicity, Alamar Blue cell survival, Daudi cells” value (shortened to “EC50 (µg/mL) … Daudi cells”) amounted to 0.00112 µg/mL; the “EC50 (µg/mL), in vitro cytotoxicity, Alamar Blue cell survival, Ramos cells” value (from here on “EC50 (µg/mL) … Ramos cells”) stood at 0.00102 µg/mL; the “EC50 (µg/mL), in vitro cytotoxicity, Alamar Blue cell survival, WSU-DLCL2 cells” value (“EC50 (µg/mL) … WSU-DLCL2 cells” for short) was 0.117 µg/mL.

B2: RB4v1.2-D (anti-CD19 antibody RB4v1.2 conjugated to PBD drug linker D) (antibody, DAR 2.18, V domains shown)
VH: QVQLVQPGAEVVKPGASVKLSCKTSGYTFTSNWMHWVKQAPGQGLEWIGEIDPSDSYTNYNQNFQGKAKLTVDKSTSTAYMEVSSLRSDDTAVYYCARGSNPYYYAMDYWGQGTSVTVS
VL: EIVLTQSPAIMSASPGERVTMTCSASSGVNYMHWYQQKPGTSPRRWIYDTSKLASGVPARFSGSGSGTSYSLTISSMEPEDAATYYCHQRGSYTFGGGTKLEIK
modifications: PBD dimer drug linker D (iodoacetamide) attached to cysteine thiols after TCEP reduction; positions not given; DAR 2.18 for the whole ADC
In the case of B2, in experiment [2], the “EC50 (µg/mL) … Daudi cells” value amounted to 0.00102 µg/mL; the “EC50 (µg/mL) … Ramos cells” value was 0.000798 µg/mL; the “EC50 (µg/mL) … WSU-DLCL2 cells” value turned out to be 0.0219 µg/mL.

B3: RB4v1.2-E (anti-CD19 antibody RB4v1.2 conjugated to PBD drug linker E) (antibody, DAR 1.93, V domains shown)
VH: QVQLVQPGAEVVKPGASVKLSCKTSGYTFTSNWMHWVKQAPGQGLEWIGEIDPSDSYTNYNQNFQGKAKLTVDKSTSTAYMEVSSLRSDDTAVYYCARGSNPYYYAMDYWGQGTSVTVS
VL: EIVLTQSPAIMSASPGERVTMTCSASSGVNYMHWYQQKPGTSPRRWIYDTSKLASGVPARFSGSGSGTSYSLTISSMEPEDAATYYCHQRGSYTFGGGTKLEIK
modifications: PBD dimer drug linker E attached to cysteine thiols after TCEP reduction; positions not given; DAR 1.93 for the whole ADC
Take B3: in experiment [3], the “EC50 (µg/mL) … Daudi cells” value is 0.00122 µg/mL; the “EC50 (µg/mL) … Ramos cells” value stood at 0.00147 µg/mL; the “EC50 (µg/mL) … WSU-DLCL2 cells” value was determined as 0.031 µg/mL.
